Target: MBP-DHX15-His10 (human, UniProt O43143 1-795)
Experiment: pull-down

MBP-DHX15-His10, sequence (O43143 whole entry): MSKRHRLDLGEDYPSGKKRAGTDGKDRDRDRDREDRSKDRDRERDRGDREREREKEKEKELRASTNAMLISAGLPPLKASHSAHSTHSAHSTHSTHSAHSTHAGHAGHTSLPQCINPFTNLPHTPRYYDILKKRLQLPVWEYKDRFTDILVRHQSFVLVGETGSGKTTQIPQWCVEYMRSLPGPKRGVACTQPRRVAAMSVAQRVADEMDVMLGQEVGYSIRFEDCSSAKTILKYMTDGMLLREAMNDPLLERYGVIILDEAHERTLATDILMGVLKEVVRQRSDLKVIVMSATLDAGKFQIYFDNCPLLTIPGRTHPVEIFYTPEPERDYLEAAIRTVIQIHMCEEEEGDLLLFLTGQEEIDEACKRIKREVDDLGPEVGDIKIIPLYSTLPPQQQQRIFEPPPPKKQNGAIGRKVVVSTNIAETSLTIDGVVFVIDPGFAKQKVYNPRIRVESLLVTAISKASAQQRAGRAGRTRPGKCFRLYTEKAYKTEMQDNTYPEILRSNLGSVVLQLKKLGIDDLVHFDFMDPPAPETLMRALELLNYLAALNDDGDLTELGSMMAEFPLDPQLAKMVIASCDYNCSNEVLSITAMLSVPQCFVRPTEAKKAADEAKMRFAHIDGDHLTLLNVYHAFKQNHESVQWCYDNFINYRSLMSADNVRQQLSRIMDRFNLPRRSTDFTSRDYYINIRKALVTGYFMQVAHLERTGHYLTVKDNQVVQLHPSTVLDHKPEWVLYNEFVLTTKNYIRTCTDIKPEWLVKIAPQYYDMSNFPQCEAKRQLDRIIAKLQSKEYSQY

B1: ZZ-GPATCH4GP-His7 (G-patch domain of GPATCH4, amino acids 11 to 57) (domain or fragment)
chain: GMKFAEEQLLKHGWTQGKGLGRKENGITQALRVTLKQDTHGVGHDPA
Question: Does B1 bind?
Answer: binds
